Among the data in PMC4434323 are binding signal (PBM E-score (-0.5 to 0.5)) values, retold here.

Series [1] addresses gei-3 (T22H6.6) (Caenorhabditis elegans) (UniProt Q0G833).
Series [2] concerns the target T1, tbx-38 (C24H11.3) (Caenorhabditis elegans) (UniProt Q9XVD5).
T1 sequence: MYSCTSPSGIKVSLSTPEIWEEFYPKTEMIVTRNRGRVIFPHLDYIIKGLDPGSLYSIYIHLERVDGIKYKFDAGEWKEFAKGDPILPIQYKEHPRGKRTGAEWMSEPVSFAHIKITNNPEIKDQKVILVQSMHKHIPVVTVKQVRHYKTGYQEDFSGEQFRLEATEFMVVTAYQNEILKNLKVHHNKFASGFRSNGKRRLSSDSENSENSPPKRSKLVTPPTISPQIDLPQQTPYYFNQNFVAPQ

For series [3], the target named is T2, tbx-43 (Y46E12A.4) (Caenorhabditis elegans) (UniProt Q1T6W8).
T2 sequence: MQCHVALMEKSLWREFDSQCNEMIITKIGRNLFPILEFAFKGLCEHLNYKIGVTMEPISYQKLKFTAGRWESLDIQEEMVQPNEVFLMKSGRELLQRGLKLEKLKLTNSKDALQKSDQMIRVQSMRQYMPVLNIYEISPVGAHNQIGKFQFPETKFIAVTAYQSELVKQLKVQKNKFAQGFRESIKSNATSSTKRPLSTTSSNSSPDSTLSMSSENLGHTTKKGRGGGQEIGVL

For series [4], the target named is T3, tbx-39 (Y73F8A.16) (Caenorhabditis elegans) (UniProt Q9NA56).
T3 sequence: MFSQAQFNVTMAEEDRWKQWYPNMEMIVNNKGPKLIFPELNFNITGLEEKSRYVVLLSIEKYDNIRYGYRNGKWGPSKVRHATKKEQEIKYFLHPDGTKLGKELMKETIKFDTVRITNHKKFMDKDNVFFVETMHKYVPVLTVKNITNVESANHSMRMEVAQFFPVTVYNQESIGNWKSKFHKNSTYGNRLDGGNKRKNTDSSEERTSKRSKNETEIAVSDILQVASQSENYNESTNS

Series [5] concerns the target atf-7 (C07G2.2) (Caenorhabditis elegans) (UniProt Q86MD3).
The target of series [6] is T4, zip-3 (W07G1.3) (Caenorhabditis elegans) (UniProt Q9XUK2).
T4 sequence: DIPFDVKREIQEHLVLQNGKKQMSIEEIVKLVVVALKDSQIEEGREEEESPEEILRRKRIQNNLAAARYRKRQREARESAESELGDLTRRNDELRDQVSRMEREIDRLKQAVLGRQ

The target of series [7] is T5, atf-5 (T04C10.4) (Caenorhabditis elegans) (UniProt Q22156).
T5 sequence: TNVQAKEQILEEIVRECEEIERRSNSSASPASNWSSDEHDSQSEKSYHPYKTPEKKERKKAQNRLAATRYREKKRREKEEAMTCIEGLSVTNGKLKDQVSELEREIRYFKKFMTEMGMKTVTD

Series [8] addresses T6, hlh-12 (C28C12.8) (Caenorhabditis elegans) (UniProt Q18277).
T6 sequence: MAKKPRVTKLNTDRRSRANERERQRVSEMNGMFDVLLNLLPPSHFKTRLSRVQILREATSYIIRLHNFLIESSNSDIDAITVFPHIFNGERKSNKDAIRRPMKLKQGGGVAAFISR

Sequence of atf-7 (C07G2.2) (Caenorhabditis elegans) (Q86MD3 339-508): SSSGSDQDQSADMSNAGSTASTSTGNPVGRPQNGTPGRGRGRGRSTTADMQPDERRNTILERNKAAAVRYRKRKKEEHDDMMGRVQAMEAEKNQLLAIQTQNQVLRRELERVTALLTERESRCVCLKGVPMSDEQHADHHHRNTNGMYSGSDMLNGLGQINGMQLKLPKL
Sequence of gei-3 (T22H6.6) (Caenorhabditis elegans) (Q0G833 entry or part of it): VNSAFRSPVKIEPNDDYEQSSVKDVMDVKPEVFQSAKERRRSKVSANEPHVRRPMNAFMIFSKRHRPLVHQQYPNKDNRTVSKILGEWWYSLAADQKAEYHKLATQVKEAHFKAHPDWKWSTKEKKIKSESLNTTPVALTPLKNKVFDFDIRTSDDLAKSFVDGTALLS

On to “CCCATTCA (double strand) [8-mer CCCATTCA]”, for which the binding signal (PBM E-score (-0.5 to 0.5)) in series [1] came to 0.478.

For “GTGTGAAC (double strand) [8-mer GTGTGAAC]”, the binding signal (PBM E-score (-0.5 to 0.5)) worked out at 0.492 in series [2] and 0.485 in series [3].

On to “GGGTGTGA (double strand) [8-mer GGGTGTGA]”, for which the results for the binding signal (PBM E-score (-0.5 to 0.5)) in series [2] and in series [3] were 0.487 and 0.49, respectively.

In series [1], “ATCAATGG (double strand) [8-mer ATCAATGG]” had a binding signal (PBM E-score (-0.5 to 0.5)) of 0.477.

For the sequence “AAGTGTGA (double strand) [8-mer AAGTGTGA]”, the binding signal (PBM E-score (-0.5 to 0.5)) in series [2] was 0.494.

With “AGTGTGAA (double strand) [8-mer AGTGTGAA]”, the binding signal (PBM E-score (-0.5 to 0.5)) worked out at 0.496 in series [2] and 0.494 in series [3].

The sequence “AGGTGTCA (double strand) [8-mer AGGTGTCA]” had a binding signal (PBM E-score (-0.5 to 0.5)) in series [3] of 0.497.

Take “ACTTGGCA (double strand) [8-mer ACTTGGCA]”: in series [4], the binding signal (PBM E-score (-0.5 to 0.5)) amounted to 0.492.

Turning to “AAACTTGG (double strand) [8-mer AAACTTGG]”, the binding signal (PBM E-score (-0.5 to 0.5)) in series [4] came out at 0.487.

“AACTTGGC (double strand) [8-mer AACTTGGC]” returned a binding signal (PBM E-score (-0.5 to 0.5)) in series [4] of 0.497.

In series [1], “TCAATGAA (double strand) [8-mer TCAATGAA]” registered a binding signal (PBM E-score (-0.5 to 0.5)) of 0.485.

Regarding “GAGTGTGA (double strand) [8-mer GAGTGTGA]”, the binding signal (PBM E-score (-0.5 to 0.5)) in series [2] was found to be 0.484.

With “ATGACGTC (double strand) [8-mer ATGACGTC]”, the binding signal (PBM E-score (-0.5 to 0.5)) in series [5] stood at 0.497; in series [6], 0.493; in series [7] it was 0.468.

In the case of “GGTGTCAA (double strand) [8-mer GGTGTCAA]”, the binding signal (PBM E-score (-0.5 to 0.5)) in series [3] was 0.495.

In series [3], “ATCACACC (double strand) [8-mer ATCACACC]” had a binding signal (PBM E-score (-0.5 to 0.5)) of 0.486.

On to “AACTTGGA (double strand) [8-mer AACTTGGA]”, for which the binding signal (PBM E-score (-0.5 to 0.5)) in series [4] was 0.473.

In series [4], “CTACCAAG (double strand) [8-mer CTACCAAG]” yielded a binding signal (PBM E-score (-0.5 to 0.5)) of 0.473.

In the case of “ATGAATGG (double strand) [8-mer ATGAATGG]”, the binding signal (PBM E-score (-0.5 to 0.5)) in series [1] turned out to be 0.489.

In turn, “ACTTGGTA (double strand) [8-mer ACTTGGTA]” registered a binding signal (PBM E-score (-0.5 to 0.5)) in series [4] of 0.472.

With “ATATGACG (double strand) [8-mer ATATGACG]”, in series [6], the binding signal (PBM E-score (-0.5 to 0.5)) was found to be 0.493.

As to “ATGACGTA (double strand) [8-mer ATGACGTA]”, the binding signal (PBM E-score (-0.5 to 0.5)) was determined as 0.498 in series [5], 0.49 in series [6] and 0.459 in series [7].

In series [4], “CTTGGCAC (double strand) [8-mer CTTGGCAC]” returned a binding signal (PBM E-score (-0.5 to 0.5)) of 0.477.

In the case of “ATGACGCG (double strand) [8-mer ATGACGCG]”, in series [6], the binding signal (PBM E-score (-0.5 to 0.5)) was determined as 0.488.

“TGAATGAA (double strand) [8-mer TGAATGAA]” returned a binding signal (PBM E-score (-0.5 to 0.5)) in series [1] of 0.491.

With “AACGTCAT (double strand) [8-mer AACGTCAT]”, the binding signal (PBM E-score (-0.5 to 0.5)) worked out at 0.495 in series [5] and 0.486 in series [6].

Take “AACTTAGT (double strand) [8-mer AACTTAGT]”: the binding signal (PBM E-score (-0.5 to 0.5)) in series [4] came out at 0.479.

In series [1], “TCAATGGA (double strand) [8-mer TCAATGGA]” came in with a binding signal (PBM E-score (-0.5 to 0.5)) of 0.473.

The sequence “CCAAGTTC (double strand) [8-mer CCAAGTTC]” had a binding signal (PBM E-score (-0.5 to 0.5)) in series [4] of 0.477.

On to “CATTCATA (double strand) [8-mer CATTCATA]”, for which the binding signal (PBM E-score (-0.5 to 0.5)) in series [1] was found to be 0.474.

As for “GGTGCGAA (double strand) [8-mer GGTGCGAA]”, the binding signal (PBM E-score (-0.5 to 0.5)) in series [2] amounted to 0.494; in series [3], 0.48.

In the case of “AGGTGCGA (double strand) [8-mer AGGTGCGA]”, the binding signal (PBM E-score (-0.5 to 0.5)) in series [2] is 0.49; in series [3] it was 0.48.

“ATATGATG (double strand) [8-mer ATATGATG]” registered a binding signal (PBM E-score (-0.5 to 0.5)) in series [6] of 0.486.

For the sequence “GTGTGAAA (double strand) [8-mer GTGTGAAA]”, the binding signal (PBM E-score (-0.5 to 0.5)) in series [2] came to 0.483; in series [3], 0.494.

For “CCAAGTTA (double strand) [8-mer CCAAGTTA]”, the binding signal (PBM E-score (-0.5 to 0.5)) in series [4] was found to be 0.495.

Turning to “AGATGACG (double strand) [8-mer AGATGACG]”, the binding signal (PBM E-score (-0.5 to 0.5)) in series [6] turned out to be 0.487.

Take “AGGTGTGA (double strand) [8-mer AGGTGTGA]”: the binding signal (PBM E-score (-0.5 to 0.5)) is 0.498 in series [2] and 0.499 in series [3].

In series [2], “GGGTGCGA (double strand) [8-mer GGGTGCGA]” had a binding signal (PBM E-score (-0.5 to 0.5)) of 0.485.

On to “ACGTCATG (double strand) [8-mer ACGTCATG]”, for which the values for the binding signal (PBM E-score (-0.5 to 0.5)) in series [5] and in series [6] were 0.496 and 0.486, respectively.

Regarding “TCAATTGA (double strand) [8-mer TCAATTGA]”, in series [1], the binding signal (PBM E-score (-0.5 to 0.5)) amounted to 0.484.

“AAATGAAT (double strand) [8-mer AAATGAAT]”: in series [1], the binding signal (PBM E-score (-0.5 to 0.5)) worked out at 0.472.

“AACTTAGC (double strand) [8-mer AACTTAGC]”: the binding signal (PBM E-score (-0.5 to 0.5)) in series [4] turned out to be 0.493.

As for “CATTGATA (double strand) [8-mer CATTGATA]”, the binding signal (PBM E-score (-0.5 to 0.5)) in series [1] amounted to 0.472.

Sequence “ATCAATGA (double strand) [8-mer ATCAATGA]” showed a binding signal (PBM E-score (-0.5 to 0.5)) in series [1] of 0.485.

Sequence “AATGAATG (double strand) [8-mer AATGAATG]” came in with a binding signal (PBM E-score (-0.5 to 0.5)) in series [1] of 0.481.

For the sequence “AACTTCGC (double strand) [8-mer AACTTCGC]”, the binding signal (PBM E-score (-0.5 to 0.5)) in series [4] was determined as 0.467.

As to “GATGACGC (double strand) [8-mer GATGACGC]”, in series [6], the binding signal (PBM E-score (-0.5 to 0.5)) is 0.493.

For the sequence “TGACATCA (double strand) [8-mer TGACATCA]”, the binding signal (PBM E-score (-0.5 to 0.5)) in series [6] stood at 0.49; in series [7], 0.468.

In series [4], “AACTTGGT (double strand) [8-mer AACTTGGT]” registered a binding signal (PBM E-score (-0.5 to 0.5)) of 0.496.

Turning to “TGTACCAA (double strand) [8-mer TGTACCAA]”, the binding signal (PBM E-score (-0.5 to 0.5)) in series [4] was determined as 0.485.

For the sequence “TGAATTAA (double strand) [8-mer TGAATTAA]”, the binding signal (PBM E-score (-0.5 to 0.5)) in series [1] came to 0.474.

As for “GGGTGTCA (double strand) [8-mer GGGTGTCA]”, the binding signal (PBM E-score (-0.5 to 0.5)) in series [3] came to 0.484.

For “AGGTGTTA (double strand) [8-mer AGGTGTTA]”, the figures for the binding signal (PBM E-score (-0.5 to 0.5)) in series [2] and in series [3] were 0.494 and 0.497, respectively.

Sequence “AACATCTG (double strand) [8-mer AACATCTG]” gave a binding signal (PBM E-score (-0.5 to 0.5)) in series [8] of 0.481.

In series [2], “ATTCGCAC (double strand) [8-mer ATTCGCAC]” came in with a binding signal (PBM E-score (-0.5 to 0.5)) of 0.489.

Consider “ATTCACAC (double strand) [8-mer ATTCACAC]”, for which the binding signal (PBM E-score (-0.5 to 0.5)) in series [2] amounted to 0.494; in series [3], 0.489.

For “GGTGTGAA (double strand) [8-mer GGTGTGAA]”, the results for the binding signal (PBM E-score (-0.5 to 0.5)) in series [2] and in series [3] were 0.497 and 0.499, respectively.

Sequence “ACCATCTG (double strand) [8-mer ACCATCTG]” registered a binding signal (PBM E-score (-0.5 to 0.5)) in series [8] of 0.482.

“ATGAATGA (double strand) [8-mer ATGAATGA]”: the binding signal (PBM E-score (-0.5 to 0.5)) in series [1] turned out to be 0.489.

In turn, “CTAAGTTA (double strand) [8-mer CTAAGTTA]” came in with a binding signal (PBM E-score (-0.5 to 0.5)) in series [4] of 0.48.

As for “TCCATTCA (double strand) [8-mer TCCATTCA]”, the binding signal (PBM E-score (-0.5 to 0.5)) in series [1] was found to be 0.48.

In series [8], “ACATCTGG (double strand) [8-mer ACATCTGG]” returned a binding signal (PBM E-score (-0.5 to 0.5)) of 0.481.

The sequence “AACATATG (double strand) [8-mer AACATATG]” showed a binding signal (PBM E-score (-0.5 to 0.5)) in series [8] of 0.465.
